Substitutions are numbered along the chain they refer to.

The results in this text go back to patent EP4692126A1 (Sound Biopharmaceuticals Co. Ltd., dated 2026).

One assay deals with T1, 5T4 EDC-Fc (UniProt Q13641 32-355).
T1 construct: domain: EDC; Printed with molecular weight 65-120 kD; not shown: Fc part
T1 sequence (looked up): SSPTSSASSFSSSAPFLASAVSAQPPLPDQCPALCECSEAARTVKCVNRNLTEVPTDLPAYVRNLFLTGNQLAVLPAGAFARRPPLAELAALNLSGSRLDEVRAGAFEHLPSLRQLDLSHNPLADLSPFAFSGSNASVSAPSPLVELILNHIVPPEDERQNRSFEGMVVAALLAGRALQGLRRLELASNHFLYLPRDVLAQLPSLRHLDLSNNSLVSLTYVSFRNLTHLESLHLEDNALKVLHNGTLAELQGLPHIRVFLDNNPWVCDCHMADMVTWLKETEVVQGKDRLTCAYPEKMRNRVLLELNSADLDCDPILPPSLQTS
The assay can be described thus: SPR (Biacore), 5T4 EDC-Fc amine-coupled to CM5, antibody as analyte, 1:2 model.

The target in assay [1] is T2, TPBG-His (UniProt Q13641 32-355, limits assumed).
T2 construct: probably the human protein, the same as m24; also called TPBG-His antigen; TPBG-His protein; not shown: His tag
T2 sequence (looked up): T1 sequence (looked up)
Nature of the assay: SPR (Biacore 8K), antibody captured on anti-human antibody CM5 chip, TPBG-His 300 nM, 1:1 model.

The target in assay [2] is T2, TPBG-His. The assay can be described thus: SPR (Biacore), TPBG-His amine-coupled to CM5, antibody as analyte, 1:1 model. (In SPR one partner is held on a chip, and binding of the other changes the refractive index at the surface.)
Assay [3] concerns the target T2, TPBG-His. The assay can be described thus: ELISA, TPBG-His coated at 1 ug/ml, anti-human IgG Fc HRP detection. On the technique in general: ELISA stands for enzyme-linked immunosorbent assay.
Assay [4] deals with T3, mouse 5T4 antigen (TPBG-His, mouse) (mouse, UniProt Q9Z0L0 32-361, limits assumed).
T3 construct: One of the '3 different species of TPBG-His' coated in the cross reactivity ELISA; also called mouse TPBG-His; not shown: His tag
T3 sequence (looked up): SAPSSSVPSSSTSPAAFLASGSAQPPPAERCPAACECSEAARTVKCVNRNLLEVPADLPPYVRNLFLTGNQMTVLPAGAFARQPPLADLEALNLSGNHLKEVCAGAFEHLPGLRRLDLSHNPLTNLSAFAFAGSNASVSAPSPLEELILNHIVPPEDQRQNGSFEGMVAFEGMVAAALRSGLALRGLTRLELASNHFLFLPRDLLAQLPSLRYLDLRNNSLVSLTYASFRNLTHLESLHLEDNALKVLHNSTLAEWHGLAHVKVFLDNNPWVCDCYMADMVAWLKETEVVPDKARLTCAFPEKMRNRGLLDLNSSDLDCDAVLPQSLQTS
The assay can be described thus: ELISA, TPBG-His coated at 1 ug/ml.

B1: antibody B5 (antibody, V domains shown)
VH: EVQLVESGGGLVKPGGSLKLSCAASGFTFRNYAMSWVRQSPDKRLEWVAEISTGGSYTYYPDTVTGRFTISRDNAKNTLYLEMSSLRSEDTAMYYCAFYYYGSSYSMDYWGQGTSVTVSS
VL: DIQMTQTTSSLSASLGDRVTISCRASQDISNYLNWYQQKPDGTVKLLIYHTSILHSGVPSRFSGSGSGTDYSLTISNLEQEDIATYFCQQGDTVPLTFGAGTKLELK
notes: Monoclonal antibody from hybridoma of immunized BALB/c mice
Regarding B1, in the assay with 5T4 EDC-Fc, binding was characterised by a dissociation constant (Kd) of 0.018 nM; the koff (as a rule, a measure of how fast the partners let go of each other) turned out to be 1.45e-05 s⁻¹; the kon (as a rule, a measure of how fast the partners come together) was found to be 803000 M⁻¹ s⁻¹.

B2: hB5-2-10 (antibody, human IgG1, kappa)
heavy: not shown
light: DIQMTQSPSSLSASVGDRVTISCRASQDISNYLNWYQQKPGKVPKLLIYHTSILHSGVPSRFSGSGSGTDYSLTISSLQPEDVATYFCQQGDTVPLTFGGGTKVEIKRTVAAPSVFIFPPSDEQLKSGTASVVCLLNNFYPREAKVQWKVDNALQSGNSQESVTEQDSKDSTYSLSSTLTLSKADYEKHKVYACEVTHQGLSSPVTKSFNRGEC
notes: Humanized IgG1 kappa; also called humanized antibody hB5-2-10
For the molecule B2, in the assay with TPBG-His [1], the Kd (usually the constant that tells how readily two partners part at equilibrium) stood at 2.31 nM, the koff was determined as 0.000487 s⁻¹ and the on-rate constant (kon) was found to be 211000 M⁻¹ s⁻¹. In the assay with TPBG-His [2], the affinity, expressed as Kd, was 2.92 nM; the koff came to 0.000627 s⁻¹; the kon turned out to be 215000 M⁻¹ s⁻¹. Further, in the assay with TPBG-His [3], it took 2.8 ng/mL to reach a half-maximal effect (EC50). Also, the binding result in assay [4] was “no binding (tested: highest concentration tested 20000 ng/ml)”.

B3: hB5-2-20 (antibody, human IgG1, kappa)
heavy: not shown
light: B2 light with V43A, V83F
notes: Humanized IgG1 kappa
In the assay with TPBG-His [1], B3 displayed a dissociation constant Kd of 0.95 nM, a koff of 0.000302 s⁻¹ and an on-rate (kon) of 318000 M⁻¹ s⁻¹.

B4: hB5-2-19 (antibody, human IgG1, kappa)
heavy: not shown
light: B2 light with S7T, P8T, Y36F, V43A, L46S, R61K, V83F
notes: Humanized IgG1 kappa
In the assay with TPBG-His [1], B4 showed a Kd of 0.88 nM, a koff of 0.000348 s⁻¹ and a kon of 396000 M⁻¹ s⁻¹.
